Results on 1 molecule are retold here after patent publication US20010016194A1, “COMPOUNDS THAT INHIBIT THE BINDING OF RAF-1 OR 14-3-3 PROTEINS TO THE BETA CHAIN OF IL-2 RECEPTOR, AND PHARMACEUTICAL COMPOSITIONS CONTAINING SAME” (priority 1999, published 2001).

The target of the experiment is (His)6-Raf-1 protein (UniProt P04049). As to the kind of experiment: totally cell-free pull-down, anti-Raf-1 immunoblot, densitometry.

B1: FLAG-HMK-IL-2Rβ chain containing only the proline rich C-terminal (CT+) (receptor, not shown: small tags and cut ends)
chain: QPLSGEDDAYCTFPSRDDLLLFSPSLLGGPSPPSTAPGGSGAGEERMPPSLQERVPRDWDPQPLGPPTPGVPDLVDFQPPPELVLREAGEEVPDAGPREGVSFPWSRPPGQGEFRALNARLPLNTDAYLSLQELQGQDPTHLV
In turn, B1 displayed a % binding to Raf-1 proteins (of the positive control) of 0 to 10%.
